Measured values published in article PMC5464773 (2017).
Read-outs that look alike come from different tables or passages of the source.

T1: Myc-tagged Bcl-w (human, UniProt Q92843 1-193)
T1 chain: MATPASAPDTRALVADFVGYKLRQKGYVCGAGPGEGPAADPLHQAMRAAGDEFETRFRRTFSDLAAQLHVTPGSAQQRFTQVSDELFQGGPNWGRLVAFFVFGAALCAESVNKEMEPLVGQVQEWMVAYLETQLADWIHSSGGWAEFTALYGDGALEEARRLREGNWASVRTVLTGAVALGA

T2: Myc-tagged Bfl-1 (human, UniProt Q16548 1-175)
T2 chain: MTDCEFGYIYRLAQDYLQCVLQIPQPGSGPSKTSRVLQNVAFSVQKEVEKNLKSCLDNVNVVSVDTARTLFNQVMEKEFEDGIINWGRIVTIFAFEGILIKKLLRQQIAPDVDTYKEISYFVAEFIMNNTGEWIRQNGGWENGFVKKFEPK

T3: Myc-tagged Mcl-1 (human, UniProt Q07820 1-350)
T3 chain: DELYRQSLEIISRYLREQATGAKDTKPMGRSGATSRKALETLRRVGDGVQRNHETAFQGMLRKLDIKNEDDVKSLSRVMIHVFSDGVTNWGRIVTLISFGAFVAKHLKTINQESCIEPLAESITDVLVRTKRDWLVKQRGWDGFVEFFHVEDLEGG


What was measured:
Assay in all cases: FP
[1] = target: T1, Myc-tagged Bcl-w
[2] = target: T2, Myc-tagged Bfl-1
[3] = target: T3, Myc-tagged Mcl-1
[4] = target: Myc-tagged Bcl-xL (human, UniProt Q07817-1 1-233)
Chain of Myc-tagged Bcl-xL (Q07817 1-209): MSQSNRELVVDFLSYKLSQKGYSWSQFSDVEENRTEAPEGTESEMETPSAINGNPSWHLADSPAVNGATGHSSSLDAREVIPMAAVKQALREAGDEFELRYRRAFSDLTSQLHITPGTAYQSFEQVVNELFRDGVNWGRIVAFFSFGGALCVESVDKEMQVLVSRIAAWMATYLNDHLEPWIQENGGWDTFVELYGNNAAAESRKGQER

[5] = target: Myc-tagged Bcl-2 (human, UniProt P10415 1-239)
Chain of Myc-tagged Bcl-2 (P10415 1-211): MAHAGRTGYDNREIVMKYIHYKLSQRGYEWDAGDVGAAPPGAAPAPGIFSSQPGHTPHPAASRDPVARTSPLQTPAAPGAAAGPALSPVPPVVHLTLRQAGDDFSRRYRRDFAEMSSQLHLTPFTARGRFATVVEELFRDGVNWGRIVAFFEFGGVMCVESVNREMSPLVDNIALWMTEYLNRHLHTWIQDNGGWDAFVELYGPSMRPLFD

[6] = target: T2, Myc-tagged Bfl-1

Row | Ki [1] [nM] | Ki [2] [nM] | Ki [3] [nM] | Ki [4] [nM] | Ki [5] [nM] | Ki [6] [nM] | Binder
1 | 3 | 4.8 | 2.4 |  |  |  | Ac-QWAREIGAQLRRMADDLNAQYER-NH2 [PUMA BH3 peptide (23 residues)]
2 | > 5000 | 21 | 3200 | > 5000 | 2400 |  | Ac-QWVREIAAGLRRAADDVNAQVER-NH2 (designed binder) [FS2]
3 |  |  |  |  |  | 2.1 | Ac-QWVREIAAQLRRMADDLNAQYER-NH2 [PUMA/FS2 chimeric peptide with the larger residues of FS2 at positions 2a and 2e]
4 | 770 | 2.1 | 550 | 320 | 2000 |  | Ac-QWIREIAAGLRRFADILNAQVER-NH2 (designed binder) [FS3]
5 | > 5000 |  | > 5000 | 2400 | > 5000 |  | Ac-QWVREIAAGLRLAADNVNAQLER-NH2 (designed binder) [FS1]
6 |  |  |  |  |  | 600 | Ac-QWAREIGAGLRRAADDVNAQVER-NH2 [PUMA/FS2 chimeric peptide with the smaller residues of FS2 at positions 2g, 3d, 4a and 4e]
